# Experimental data as given in US8026218 (UNIVERSITY OF ARIZONA, dated 2011).
# Read-outs that look alike come from different tables or passages of the source. Bridge positions count the residues as written; N and C are the ends. Square brackets hold non-standard residues; d marks the D form. Ends that are not written are not given here. * marks the point of attachment. Glc = O-glucosyl on Ser side chain (Ser(OGlu)/Ser(OGlc)); NH(3,5-(CF3)2-benzyl) = FC(F)(F)c1cc(CN*)cc(C(F)(F)F)c1; OBzl(3,5-(CF3)2) = FC(F)(F)c1cc(CO*)cc(C(F)(F)F)c1; Nle = CCCC[C@H](N)C(=O)O
# Experiments:
# rat µ opioid receptor [1] = target: T1, rat µ opioid receptor (rat, UniProt P33535 1-398); experiment: competition vs [3H]DAMGO, rMOR cell membranes
# T1 construct: whole, on cells; membrane preparations of the transfected cells were used; also called rMOR; MOR
# T1 sequence (P33535 whole entry): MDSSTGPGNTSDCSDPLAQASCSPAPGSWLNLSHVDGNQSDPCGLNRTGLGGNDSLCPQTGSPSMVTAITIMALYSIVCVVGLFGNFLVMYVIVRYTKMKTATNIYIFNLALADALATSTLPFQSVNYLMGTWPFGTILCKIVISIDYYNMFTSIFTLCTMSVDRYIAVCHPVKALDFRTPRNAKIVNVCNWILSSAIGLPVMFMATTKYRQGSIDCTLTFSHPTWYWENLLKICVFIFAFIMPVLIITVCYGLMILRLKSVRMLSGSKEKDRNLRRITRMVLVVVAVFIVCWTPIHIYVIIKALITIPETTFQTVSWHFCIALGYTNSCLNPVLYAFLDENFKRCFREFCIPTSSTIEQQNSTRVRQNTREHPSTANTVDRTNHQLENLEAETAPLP
# [2] = target: T2, µ opioid receptor of the guinea pig isolated ileum (guinea pig, UniProt P97266 1-98); experiment: cell-based or functional assay
# T2 sequence (P97266 whole entry): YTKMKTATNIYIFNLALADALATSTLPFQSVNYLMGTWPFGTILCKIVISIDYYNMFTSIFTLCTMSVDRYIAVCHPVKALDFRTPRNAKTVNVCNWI
# rat µ opioid receptor [3] = target: T1, rat µ opioid receptor; experiment: cell-based or functional assay
# human δ opioid receptor [4] = target: T3, human δ opioid receptor (human, UniProt P41143 1-372); experiment: cell-based or functional assay
# T3 sequence (P41143 whole entry, stated change not applied): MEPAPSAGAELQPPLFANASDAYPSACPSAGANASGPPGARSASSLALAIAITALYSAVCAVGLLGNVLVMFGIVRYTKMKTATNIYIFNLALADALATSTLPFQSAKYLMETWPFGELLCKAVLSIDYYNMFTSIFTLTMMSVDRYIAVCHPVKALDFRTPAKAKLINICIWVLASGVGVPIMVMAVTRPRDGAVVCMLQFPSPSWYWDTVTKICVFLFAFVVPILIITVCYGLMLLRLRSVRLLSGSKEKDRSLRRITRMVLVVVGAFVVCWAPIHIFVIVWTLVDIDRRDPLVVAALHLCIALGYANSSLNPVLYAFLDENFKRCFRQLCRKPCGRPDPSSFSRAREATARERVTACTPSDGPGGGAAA
# rat NK1 receptor [5] = target: T4, rat NK1 receptor (rat, UniProt P14600 1-407); experiment: competition vs [3H]Substance P, rNK1 CHO cell membranes
# T4 construct: whole, on cells; membrane preparations of the transfected cells were used; also called rNK1; rNK-1
# T4 sequence (P14600 whole entry): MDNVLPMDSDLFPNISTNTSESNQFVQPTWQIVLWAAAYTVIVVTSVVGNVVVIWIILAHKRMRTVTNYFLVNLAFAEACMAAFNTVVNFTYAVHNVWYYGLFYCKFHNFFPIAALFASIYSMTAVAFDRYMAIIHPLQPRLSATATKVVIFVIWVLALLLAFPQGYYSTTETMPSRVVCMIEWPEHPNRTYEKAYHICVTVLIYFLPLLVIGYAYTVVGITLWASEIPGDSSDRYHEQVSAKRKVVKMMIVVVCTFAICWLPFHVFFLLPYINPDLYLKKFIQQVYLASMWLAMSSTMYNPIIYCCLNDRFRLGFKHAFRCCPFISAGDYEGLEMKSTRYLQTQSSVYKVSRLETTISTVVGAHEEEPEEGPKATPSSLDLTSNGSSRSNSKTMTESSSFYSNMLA
# [6] = target: T2, µ opioid receptor of the guinea pig …; experiment: cell-based or functional assay; remark: listed apart in the source
# rat µ opioid receptor [7] = target: T1, rat µ opioid receptor; experiment: cell-based or functional assay; remark: listed apart in the source
# human δ opioid receptor [8] = target: T3, human δ opioid receptor; experiment: cell-based or functional assay; remark: listed apart in the source
# guinea pig NK1 receptor [9] = target: guinea pig NK1 receptor (guinea pig, UniProt P30547 1-407); experiment: cell-based or functional assay
# Target sequence in this assay (P30547 whole entry): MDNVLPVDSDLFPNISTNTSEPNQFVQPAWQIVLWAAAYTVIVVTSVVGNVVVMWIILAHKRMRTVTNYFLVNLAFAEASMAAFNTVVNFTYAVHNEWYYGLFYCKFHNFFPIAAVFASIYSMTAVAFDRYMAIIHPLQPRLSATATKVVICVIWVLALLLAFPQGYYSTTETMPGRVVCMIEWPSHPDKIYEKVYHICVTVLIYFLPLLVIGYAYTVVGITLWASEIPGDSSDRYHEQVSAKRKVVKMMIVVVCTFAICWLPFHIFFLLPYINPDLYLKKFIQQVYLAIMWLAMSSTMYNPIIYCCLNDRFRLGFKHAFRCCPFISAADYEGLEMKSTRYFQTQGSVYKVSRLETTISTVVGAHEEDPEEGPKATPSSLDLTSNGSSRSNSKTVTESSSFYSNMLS
# rat NK1 receptor [10] = target: T4, rat NK1 receptor; experiment: competition vs [3H]Substance P, rNK1 CHO cell membranes; remark: listed apart in the source
# rat µ opioid receptor [11] = target: T1, rat µ opioid receptor; experiment: competition vs [3H]DAMGO, rMOR cell membranes; remark: listed apart in the source
# human NK1 receptor [12] = target: T5, human NK1 receptor (human, UniProt P25103 1-407); experiment: competition vs [3H]Substance P, hNK1 CHO cell membranes
# T5 construct: whole, on cells; membrane preparations of the transfected cells were used; also called hNK1; human neurokinin-1 receptor
# T5 sequence (P25103 whole entry): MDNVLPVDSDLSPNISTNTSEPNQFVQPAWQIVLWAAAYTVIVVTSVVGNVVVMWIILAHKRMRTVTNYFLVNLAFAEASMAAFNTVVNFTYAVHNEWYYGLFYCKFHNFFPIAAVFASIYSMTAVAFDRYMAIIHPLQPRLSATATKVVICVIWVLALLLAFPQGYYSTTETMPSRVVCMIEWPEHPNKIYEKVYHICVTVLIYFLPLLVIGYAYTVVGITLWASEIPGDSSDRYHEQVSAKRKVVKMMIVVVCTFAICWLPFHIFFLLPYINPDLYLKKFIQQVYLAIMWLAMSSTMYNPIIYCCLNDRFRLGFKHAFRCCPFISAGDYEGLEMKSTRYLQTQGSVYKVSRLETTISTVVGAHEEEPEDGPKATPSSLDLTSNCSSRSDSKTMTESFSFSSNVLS
# human δ opioid receptor [13] = target: T6, human δ opioid receptor (human, UniProt P41143 1-372); experiment: competition vs [3H]DPDPE, hDOR membranes
# T6 construct: whole, on cells; Assayed as membrane preparations of transfected cells; also called hDOR; DOR
# T6 sequence (P41143 whole entry, stated change not applied): as the sequence (P41143 whole entry, stated change not applied) above
# rat NK1 receptor [14] = target: T7, rat NK1 receptor (rat, UniProt P14600 1-407); experiment: radioligand competition vs [3H]substance P; reference value of L-732,138 (around 460 nM) is a reported one
# T7 construct: whole, on cells; Assayed as membrane preparations of transfected CHO cells; also called rNK1; rNK-1
# T7 sequence (P14600 whole entry): as the sequence (P14600 whole entry) above
# rat µ opioid receptor [15] = target: T8, rat µ opioid receptor (rat, UniProt P33535 1-398); experiment: cell-based or functional assay; remark: listed apart in the source
# T8 sequence (P33535 whole entry): as the sequence (P33535 whole entry) above
# human δ opioid receptor [16] = target: T6, human δ opioid receptor; experiment: cell-based or functional assay; remark: listed apart in the source
# guinea pig NK1 receptor [17] = target: T9, guinea pig NK1 receptor (guinea pig, UniProt P30547 1-407); experiment: cell-based or functional assay; remark: listed apart in the source
# T9 sequence (P30547 whole entry): as the sequence (P30547 whole entry) above
# rat µ opioid receptor [18] = target: T8, rat µ opioid receptor; experiment: competition vs [3H]DAMGO, membranes of rMOR-transfected HN9.10 cells
# human δ opioid receptor [19] = target: T6, human δ opioid receptor; experiment: competition vs [3H]DPDPE, membranes of hDOR-transfected HN9.10 cells
# [20] = target: µ opioid receptor of the guinea pig isolated ileum (guinea pig); experiment: cell-based or functional assay
# guinea pig NK1 receptor [21] = target: T9, guinea pig NK1 receptor; experiment: cell-based or functional assay; remark: listed apart in the source
# rat NK1 receptor [22] = target: T7, rat NK1 receptor; experiment: competition vs [3H]substance P, membranes of rNK1-transfected CHO cells
# human δ opioid receptor [23] = target: T6, human δ opioid receptor; experiment: ratio of Ki at rMOR to Ki at hDOR
# human δ opioid receptor [24] = target: T3, human δ opioid receptor; experiment: competition vs [3H]DPDPE, hDOR cell membranes
# rat µ opioid receptor [25] = target: T1, rat µ opioid receptor; experiment: competition vs [3H]DAMGO, rMOR cell membranes; remark: listed apart in the source
# rat µ opioid receptor [26] = target: T1, rat µ opioid receptor; experiment: cell-based or functional assay; remark: listed apart in the source
# human δ opioid receptor [27] = target: T3, human δ opioid receptor; experiment: cell-based or functional assay; remark: listed apart in the source
# human NK1 receptor [28] = target: T5, human NK1 receptor; experiment: competition vs [3H]Substance P, hNK1 CHO cell membranes; remark: listed apart in the source
binder,measurement,setting,value
"Y[dA]GF[Nle]PS(Glc)W-{NH(3,5-(CF3)2-benzyl)} (also called TY041) [TyrDAlaGlyPheNleProSer(OGlu)TrpNHBn(CF3)2]",Ki,rat µ opioid receptor [1],8 nM
same,GPI/LMMP IC50,[2],517 nM
same,GTP binding EC50,rat µ opioid receptor [3],18 nM
same,GTP binding Emax,rat µ opioid receptor [3],42%
same,GTP binding EC50,human δ opioid receptor [4],7.9 nM
same,GTP binding Emax,human δ opioid receptor [4],62%
same,Ki,rat NK1 receptor [5],14 nM
same,GPI/LMMP IC50,[6],517 nM
same,GTP binding EC50,rat µ opioid receptor [7],18 nM
same,GTP binding Emax,rat µ opioid receptor [7],42%
same,GTP binding EC50,human δ opioid receptor [8],7.9 nM
same,GTP binding Emax,human δ opioid receptor [8],62%
same,GPI/LMMP SP antagonist Ke,guinea pig NK1 receptor [9],1.8 nM
same,Ki,rat NK1 receptor [10],14 nM
same,Ki,rat µ opioid receptor [11],8 nM
"Y[dA]GF[Nle]PLS(Glc)W-{NH(3,5-(CF3)2-benzyl)} (also called TY055) [TyrDAlaGlyPheNleProLeuSer(OGlu)TrpNHBn(CF3)2]",Ki,rat NK1 receptor [5],34 nM
same,Ki,human NK1 receptor [12],0.052 nM
"Y[dC]GF[Nle]P[dC]W-{NH(3,5-(CF3)2-benzyl)} (disulfide 2-7, also called TY038; TY38) [Tyr[DCysGlyPheNleProDCys]TrpNHBn(CF3)2]",fold lower affinity than TY027,human δ opioid receptor [13],85 fold
"H-Y[dA]GFFPLW-{OBzl(3,5-(CF3)2)} (also: TFA salt, TFA salt; also called TY003) [H-Tyr-D-Ala-Gly-Phe-Phe-Pro-Leu-Trp-O-3,5-Bzl(CF3)2]","fold improvement of rNK1 affinity over L-732,138",rat NK1 receptor [14],25 fold
same,[35S]GTP-γ-S binding EC50,rat µ opioid receptor [15],58.7 nM
same,[35S]GTP-γ-S binding Emax,rat µ opioid receptor [15],41%
same,[35S]GTP-γ-S binding LogEC50,rat µ opioid receptor [15],-7.23
same,[35S]GTP-γ-S binding EC50,human δ opioid receptor [16],20.8 nM
same,[35S]GTP-γ-S binding Emax,human δ opioid receptor [16],39%
same,[35S]GTP-γ-S binding LogEC50,human δ opioid receptor [16],-7.68
same,"fold improvement of Ke in GPI tissue over L-732,138",guinea pig NK1 receptor [17],12 fold
same,Ki,rat µ opioid receptor [18],28.3 nM
same,LogIC50,rat µ opioid receptor [18],-7.22
same,Ki,human δ opioid receptor [19],14.6 nM
same,LogIC50,human δ opioid receptor [19],-7.5
same,"GPI (µ) opioid agonist, % at 1 µM",[20],7 % at 1 µM
same,"Substance P GPI agonist (A50), contraction relative to KCl",guinea pig NK1 receptor [21],0 % at 1 µM
same,Substance P GPI antagonist Ke,guinea pig NK1 receptor [21],14.4 nM
same,IC50,rat NK1 receptor [22],19.3 nM
same,LogIC50,rat NK1 receptor [22],-7.72
same,Ki(µ)/Ki(δ),human δ opioid receptor [23],1.9
"YXGFXPLW (D-Pen at 2 and Pen at 5 (written X); disulfide 2-5; C-terminal NH-3,5-Bzl(CF3)2 amide, cyclic; also called TY046) [Tyr[DPenGlyPhePen]ProLeuTrpNHBn(CF3)2]",Ki,human δ opioid receptor [24],1.7 nM
same,Ki,rat µ opioid receptor [25],2330 nM
same,GTP binding EC50,rat µ opioid receptor [26],28.8 nM
same,GTP binding EC50,human δ opioid receptor [27],17.3 nM
same,Ki,human NK1 receptor [28],5.3 pM
